Test [1] deals with T1, CD43, native glycoprotein from KG1a cells (human, UniProt P16150 20-400, native glycosylation).
T1 construct: mature
T1 sequence (looked up): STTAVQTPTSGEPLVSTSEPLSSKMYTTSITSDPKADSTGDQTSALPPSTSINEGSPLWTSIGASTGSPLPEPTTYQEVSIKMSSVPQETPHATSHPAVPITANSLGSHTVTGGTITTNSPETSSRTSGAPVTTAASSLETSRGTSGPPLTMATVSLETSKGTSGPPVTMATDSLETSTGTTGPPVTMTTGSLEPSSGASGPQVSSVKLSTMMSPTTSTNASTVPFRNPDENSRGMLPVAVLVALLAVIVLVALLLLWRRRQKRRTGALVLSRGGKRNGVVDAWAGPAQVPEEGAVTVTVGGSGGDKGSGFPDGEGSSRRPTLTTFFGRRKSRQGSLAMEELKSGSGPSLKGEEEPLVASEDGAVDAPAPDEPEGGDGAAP
The test is described as follows: SPR; CD43 captured from KG1a lysate on polyclonal CD43 Ab, E-Ig injected, 150 mM NaCl; apparent rate constant; 1st experiment.

Test [2] concerns the target T1, CD43, native glycoprotein from KG1a …. Nature of the test: SPR; CD43 captured from KG1a lysate on polyclonal CD43 Ab, E-Ig injected (3.9-2000 nM), 150 mM NaCl; steady-state model; mean ± SEM.
For test [3], the target named is T2, PSGL-1, native glycoprotein from human HSPCs (KG1a, CD34^pos-BM) (human, UniProt Q14242 42-412, native glycosylation and tyrosine sulfation).
T2 construct: mature; also called P-selectin glycoprotein ligand-1
T2 sequence (looked up): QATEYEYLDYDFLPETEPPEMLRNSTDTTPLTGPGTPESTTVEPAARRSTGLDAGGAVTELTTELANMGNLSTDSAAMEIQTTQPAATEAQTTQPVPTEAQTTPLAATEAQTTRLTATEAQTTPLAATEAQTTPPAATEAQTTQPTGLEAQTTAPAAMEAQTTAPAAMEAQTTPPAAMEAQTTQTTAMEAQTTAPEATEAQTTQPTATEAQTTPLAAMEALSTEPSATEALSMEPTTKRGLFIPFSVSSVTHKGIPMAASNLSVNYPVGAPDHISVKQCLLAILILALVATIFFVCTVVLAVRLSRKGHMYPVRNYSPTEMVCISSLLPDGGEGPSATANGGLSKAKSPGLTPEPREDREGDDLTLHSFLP
The test is described as follows: SPR; PSGL-1 captured from KG1a lysate on KPL-1-mAb, E-Ig injected (3.9-2000 nM), 150 mM NaCl; steady-state model; 3rd experiment. Background: SPR reads the build-up and loss of mass on a sensor chip optically.

Test [4] addresses CD44 (HCELL), native glycoprotein from human HSPCs (KG1a, CD34^pos fraction) (human) (UniProt P16070). The test is described as follows: SPR, decay after injection of E-Ig (177 nM, 1 mM CaCl2) over CD44 captured on Hermes-3; apparent constant that includes loss of CD44 from the mAb, s^-1 as in paragraph 58.
For test [5] the target is unchanged. The test is described as follows: SPR; CD44 captured from KG1a lysate on Hermes-3-mAb, E-Ig injected, 150 mM NaCl; apparent rate constant; 2nd experiment.
Test [6] addresses T2, PSGL-1, native glycoprotein from human …. The test is described as follows: SPR; PSGL-1 captured from KG1a lysate on KPL-1-mAb, E-Ig injected, 150 mM NaCl; apparent rate constant; 2nd experiment.
Test [7] shares this target. The test is described as follows: SPR; PSGL-1 captured from KG1a lysate on KPL-1-mAb, E-Ig injected, 150 mM NaCl; apparent rate constant; mean ± SEM.
The target is the same in test [8]. The test is described as follows: SPR; PSGL-1 captured from KG1a lysate on KPL-1-mAb, E-Ig injected, 150 mM NaCl; apparent rate constant; 3rd experiment.
The target in test [9] is T3, CD34, native glycoprotein from human HSPCs (KG1a, CD34^pos-BM, CD34^pos-UCB, CD34^pos-AML) (human, UniProt P28906 32-385, native glycosylation (about 120-130 kDa form); sialylated O-glycans and tyrosine sulfation are shown to matter for selectin binding).
T3 construct: mature; also called E-selL CD34
T3 sequence (looked up): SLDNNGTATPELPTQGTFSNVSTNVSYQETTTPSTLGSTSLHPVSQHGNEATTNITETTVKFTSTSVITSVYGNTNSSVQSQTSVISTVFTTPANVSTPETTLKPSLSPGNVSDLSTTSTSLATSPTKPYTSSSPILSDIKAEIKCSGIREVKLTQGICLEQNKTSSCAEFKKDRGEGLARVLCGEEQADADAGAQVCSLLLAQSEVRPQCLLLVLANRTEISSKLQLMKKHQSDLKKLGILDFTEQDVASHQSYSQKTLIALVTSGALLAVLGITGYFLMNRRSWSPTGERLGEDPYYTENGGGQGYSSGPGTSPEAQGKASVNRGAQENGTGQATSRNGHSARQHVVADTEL
The test is described as follows: SPR; CD34 captured from KG1a lysate on 563-mAb, E-Ig injected, 150 mM NaCl; apparent rate constant; 2nd experiment.

Test [10] concerns the target T3, CD34, native glycoprotein from human …. The test is described as follows: SPR; CD34 captured from CD34^pos-BM lysate on 563 mAb; apparent rate constant after the last E-Ig injection.
Test [11] addresses T1, CD43, native glycoprotein from KG1a …. Nature of the test: SPR; CD43 captured from KG1a lysate on polyclonal CD43 Ab, E-Ig injected (3.9-2000 nM), 150 mM NaCl; steady-state model; 2nd experiment.

Sequence of CD44 (HCELL), native glycoprotein from human HSPCs (KG1a, CD34^pos fraction) (human) (P16070 21-742): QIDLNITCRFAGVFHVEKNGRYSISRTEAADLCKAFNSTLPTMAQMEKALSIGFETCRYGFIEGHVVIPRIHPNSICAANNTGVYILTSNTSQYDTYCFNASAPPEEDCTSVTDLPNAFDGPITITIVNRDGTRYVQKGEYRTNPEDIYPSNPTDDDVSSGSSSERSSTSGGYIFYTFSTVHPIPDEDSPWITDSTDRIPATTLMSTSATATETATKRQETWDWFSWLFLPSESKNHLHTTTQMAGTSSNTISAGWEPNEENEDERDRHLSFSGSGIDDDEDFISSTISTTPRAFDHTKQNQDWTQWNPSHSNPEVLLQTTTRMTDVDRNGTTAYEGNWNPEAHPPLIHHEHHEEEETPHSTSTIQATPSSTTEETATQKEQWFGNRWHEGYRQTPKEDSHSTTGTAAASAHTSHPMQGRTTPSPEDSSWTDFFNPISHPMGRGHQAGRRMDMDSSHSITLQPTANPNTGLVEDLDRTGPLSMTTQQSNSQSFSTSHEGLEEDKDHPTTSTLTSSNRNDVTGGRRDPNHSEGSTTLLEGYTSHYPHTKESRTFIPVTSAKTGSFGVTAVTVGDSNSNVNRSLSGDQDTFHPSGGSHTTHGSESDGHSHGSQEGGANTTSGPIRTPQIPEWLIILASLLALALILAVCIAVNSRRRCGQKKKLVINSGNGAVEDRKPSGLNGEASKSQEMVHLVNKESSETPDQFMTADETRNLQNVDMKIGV

B1: recombinant E-selectin human immunoglobulin chimeric protein (Fc fusion)
chain: WSYNTSTEAMTYDEASAYCQQRYTHLVAIQNKEEIEYLNSILSYSPSYYWIGIRKVNNVWVWVGTQKPLTEEAKNWAPGEPNNRQKDEDCVEIYIKREKDVGMWNDERCSKKKLALCYTAACTNTSCSGHGECVETINNYTCKCDPGFSGLKCEQIVNCTALESPEHGSLVCSHPLGNFSYNSSCSISCDRGYLPSSMETMQCMSSGEWSAPIPACNVVECDAVTNPANGFVECFQNPGSFPWNTTCTFDCEEGFELMGAQSLQCTSSGNWDNEKPTCKAVTCRAVRQPQNGSVRCSHSPAGEFTFKSSCNFTCEEGFMLQGPAQVECTTQGQWTQQIPVCEAFQCTALSNPERGYMNCLPSASGSFRYGSSCEFSCEQGFVLKGSKRLQCGPTGEWDNEKPTCEAVRCDAVHQPPKGLVRCAHSPIGEFTYKSSCAFSCEEGFELHGSTQLECTSQGQWTEEVPSCQVVKCSSLAVPGKINMSCSGEPVFGTVCKFACPEGWTLNGSAARTCGATGHWSGLLPTCEAPTESNIP
For orientation: koff means a measure of how fast the partners let go of each other. One may read the kon as a measure of how fast the partners come together. As usually defined, the Kd is the free concentration of one partner at which half of the binding sites on the other are occupied at equilibrium, for simple one-to-one binding. Low readings indicate tighter binding, high ones weaker binding. Take B1: the koff in test [1] was found to be 0.00048 s⁻¹; in [5], 0.0002 s⁻¹; in [6], 0.000165 s⁻¹; in [7] it was 0.00019 s⁻¹; in test [8], 0.000262 s⁻¹; in test [9] it was 0.00016 s⁻¹. In addition, the koff in test [10] was 0.00019 s⁻¹. In addition, the kon in [1] came out at 944 M⁻¹ s⁻¹; in test [5], 794 M⁻¹ s⁻¹; in test [6], 797 M⁻¹ s⁻¹; in test [7] it was 793 M⁻¹ s⁻¹; in [8] it was 1140 M⁻¹ s⁻¹; in test [9] it was 597 M⁻¹ s⁻¹. The Kd is 442 nM in test [2], 229 nM in test [3] and 376 nM in test [11]. In addition, the koff-apparent in test [4] is 0.00019 s⁻¹.

Values taken from patent US20200199533A1 (KING ABDULLAH UNIVERSITY OF SCIENCE AND TECHNOLOGY, published 2020).
